Results from the supplement of paper PMC9732359.
± gives the uncertainty stated by the source.

Assay: protein stability index of a GFP-peptide fusion (yeast GPS) (PSI 1-4); higher = more stable; sorted into four equal gates, so the index is relative within each strain
Outline: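 Mid-log yeast cultures in leucine-free medium, carrying a pooled plasmid library, were sorted into four equal gates by their GFP/Cherry fluorescence ratio. Each plasmid expressed Cherry along with GFP fused upstream of a tiled 17-residue yeast protein peptide. Plasmids recovered from each gate were PCR-amplified and Illumina-sequenced, with reads assigned to strains by barcodes. The protein stability index was obtained by summing each gate's read frequency weighted by its gate number.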

Row | Sequence | protein stability index (doa10∆) | protein stability index (pdr5∆) | protein stability index (san1∆) | protein stability index (ubr1∆)
1 | GILLLDSLIQLANRSKE [YJL039C/NUP192] | 1.86 ± 0.064 | 1.74 ± 0.059 | 1.64 ± 0.099 | 1.97 ± 0.051
2 | GINKNEEYRKQLDKKNE [SMC1] | 3.22 ± 0.12 | 2.62 ± 0.069 | 2.3 ± 0.082 | 2.58 ± 0.045
3 | GIRVQDSVILASSKAVT [PRE1] | 2.54 ± 0.065 | 2.73 ± 0.076 | 2.46 ± 0.068 | 2.38 ± 0.05
4 | GITAVHVKIRATGGTRT [RPS14B] | 1.47 ± 0.052 | 1.61 ± 0.041 | 1.57 ± 0.11 | 1.24 ± 0.047
5 | GIVETNRPDNKNAQYHL [RPN7] | 3.17 ± 0.11 | 3.21 ± 0.13 | 3.4 ± 0.069 | 3.06 ± 0.054
6 | GKALVHHYEECAERVKI [QCR6] | 3.47 ± 0.093 | 3.28 ± 0.1 | 3.25 ± 0.073 | 3.39 ± 0.074
7 | GKETIARVTGGMKVKAD [RPS14B] | 1.42 ± 0.1 | 1.24 ± 0.096 | 1.85 ± 0.11 | 2.6 ± 0.11
8 | GKGRQSAKAELEKLVDH [PRE10] | 1.82 ± 0.099 | 2.19 ± 0.072 | 1.59 ± 0.28 | 1.14 ± 0.088
9 | GKHSIGLIWYLLAREVL [RPS0A] | 1.59 ± 0.073 | 1.87 ± 0.064 | 1.65 ± 0.1 | 2.06 ± 0.054
10 | GKKRFRVVTVDGKLIDI [SMC4] |  | 3.49 ± 0.14 | 3.31 ± 0.076 | 3.55 ± 0.18
11 | GKKWFEVSQFLIENGAS [NAS6] | 1.91 ± 0.084 | 1.55 ± 0.061 | 1.4 ± 0.1 | 1.49 ± 0.074
12 | GKLKRCSRCGSVTRAGN [SIN4] |  |  |  | 3.34 ± 0.16
13 | GKPTVNKKPKNKKKGRK [SRP72] | 3.42 ± 0.084 | 3.29 ± 0.1 | 2.93 ± 0.1 | 3.24 ± 0.092
14 | GKPVSLPLLYNFNPDNG [FAS1] | 2.93 ± 0.095 | 3.27 ± 0.1 | 2.62 ± 0.075 | 2.92 ± 0.076
15 | GKYTLGYKSTVKSLRQG [RPL30] | 2.25 ± 0.072 | 2.34 ± 0.049 | 2.54 ± 0.09 | 2.47 ± 0.048
16 | GLFPFESYKPSVQLPDM [SWI3] | 3.05 ± 0.09 | 2.88 ± 0.081 | 2.96 ± 0.067 | 2.81 ± 0.07
17 | GLFQVLHNFESVAPTKQ [NUT1] | 2.99 ± 0.075 | 2.87 ± 0.075 | 2.75 ± 0.052 | 3.12 ± 0.035
18 | GLGYVFEFQYLTIGVKF [SRB5] | 1.15 ± 0.088 | 1.53 ± 0.1 | 1.08 ± 0.15 | 1.31 ± 0.087
19 | GLHSSEYKLRSLTLSFI [ECM29] | 2.18 ± 0.057 | 2.21 ± 0.061 | 2.41 ± 0.066 | 2.46 ± 0.049
20 | GLLKRGDTVRILDTSQS [SNU114] | 3.08 ± 0.084 | 3.21 ± 0.1 | 3.15 ± 0.054 | 2.86 ± 0.1
21 | GLMLGEFVDDYTVNVVD [RPN11] | 3.32 ± 0.13 | 3.26 ± 0.1 | 3.13 ± 0.14 | 3.09 ± 0.076
22 | GLNAKQLYKARMSIKLL [POP1] | 2.13 ± 0.082 | 1.73 ± 0.08 | 2.41 ± 0.06 | 2.37 ± 0.029
23 | GLNDLVEQYKFRETTHS [BRR2] | 3.16 ± 0.091 | 3.03 ± 0.074 | 2.84 ± 0.082 | 3.1 ± 0.061
24 | GLNNDFLFQNINFERID [GRR1] | 2.09 ± 0.05 | 2.16 ± 0.057 | 2.19 ± 0.055 | 2.12 ± 0.042
25 | GLSPKKVGEDIAKATKE [RPL12A] | 3.03 ± 0.16 | 3.22 ± 0.14 | 3.13 ± 0.18 | 2.77 ± 0.24
26 | GLVCADTFRAGAFDQLK [SRP54] | 3.14 ± 0.1 | 3.54 ± 0.1 | 3.34 ± 0.11 | 3.25 ± 0.084

Row | Sequence | protein stability index (doa10∆) | protein stability index (pdr5∆) | protein stability index (san1∆) | protein stability index (ubr1∆)
27 | GLYKMMEERDGAKFENI [AAR2] | 1.49 ± 0.19 | 1.87 ± 0.12 | 1.68 ± 0.2 | 1.74 ± 0.056
28 | GMIVISMENYHLLIKII [SRB8] | 1.96 ± 0.043 | 2.04 ± 0.044 | 2.71 ± 0.048 | 2.66 ± 0.045
29 | GMTKSNIYNFSPSERIE [BRR2] | 3.18 ± 0.082 | 3.38 ± 0.082 | 3.01 ± 0.19 | 2.96 ± 0.059
30 | GMTPCTVSPDFVAATTN [FAS1] | 1.83 ± 0.076 | 1.98 ± 0.054 | 1.86 ± 0.12 | 1.99 ± 0.07
31 | GNDAKPAKVEDVQKSSD [YLR335W/NUP2] | 3.3 ± 0.064 | 3.2 ± 0.058 | 3.17 ± 0.052 | 3.13 ± 0.051
32 | GNEVSSLYPPPPPYVKF [MED7] | 3.17 ± 0.087 | 3.08 ± 0.065 | 2.74 ± 0.079 | 3.13 ± 0.049
33 | GNGITNTTTRVIPQVEV [SNF5] | 3.02 ± 0.15 | 2.58 ± 0.095 | 1.98 ± 0.21 | 2.49 ± 0.1
34 | GNIISSDKTIVPTSIQT [SIN4] | 2.42 ± 0.061 | 2.61 ± 0.054 | 2.1 ± 0.076 | 2.77 ± 0.051
35 | GNIKDLPENIILTSLMR [CSN9] | 2.69 ± 0.1 | 2.93 ± 0.075 | 2.43 ± 0.14 | 3.03 ± 0.1
36 | GNLSGKRVDFSGRTVIS [RPO31] | 3 ± 0.073 | 3.01 ± 0.081 | 3.36 ± 0.073 | 3.17 ± 0.089
37 | GNNNNNNSGNDNNNTTN [MED2] | 3.06 ± 0.056 | 3.05 ± 0.058 | 3.08 ± 0.045 | 2.93 ± 0.078
38 | GNNVQENELVITSIPKP [RMP1] | 3.42 ± 0.14 | 3.4 ± 0.11 | 3.37 ± 0.065 | 3.15 ± 0.064
39 | GNPGRIRVLFKENGQLI [SEC65] | 2.38 ± 0.055 | 2.24 ± 0.072 | 2.33 ± 0.11 | 2.44 ± 0.059
40 | GNQQQQLQQQPQMQCAL [YGL172W/NUP49] | 2.79 ± 0.17 | 2.66 ± 0.19 | 2.87 ± 0.1 | 
41 | GNSGVVRATFRNNLPAK [RPL33A] | 2.88 ± 0.085 | 3.17 ± 0.12 | 3.19 ± 0.099 | 3.22 ± 0.067
42 | GNYSHLMEKNRIRKLTG [REC8] | 1.58 ± 0.067 | 2.04 ± 0.061 | 2.56 ± 0.1 | 1.9 ± 0.062
43 | GPKLRASDLKINELFKK [RPN8] | 1.98 ± 0.12 | 1.42 ± 0.11 | 1.1 ± 0.13 | 1.08 ± 0.13
44 | GPNNFIWPAEDALRRGM [MED4] | 3.35 ± 0.13 | 3.15 ± 0.11 | 3.03 ± 0.079 | 3.27 ± 0.08
45 | GQGEQVDDVLETISAIE [RPN1] | 3.4 ± 0.27 | 3.05 ± 0.18 | 2.69 ± 0.19 | 2.91 ± 0.19
46 | GQKLLAIKYGYEDSGST [SRB4] | 2.83 ± 0.11 | 2.91 ± 0.098 | 2.53 ± 0.1 | 3.25 ± 0.11
47 | GQQTAQPQQSTIGGGLF [YGR119C/NUP57] | 2.88 ± 0.072 | 3.19 ± 0.052 | 2.93 ± 0.053 | 3.28 ± 0.067
48 | GQRTAYHSKRDASTPLR [RPB2] | 3.32 ± 0.092 | 3.1 ± 0.11 | 3.12 ± 0.066 | 3.25 ± 0.071
49 | GQSSSIQSSLMTNLTYF [YCS4] | 2.86 ± 0.095 | 2.74 ± 0.071 | 2.56 ± 0.086 | 2.95 ± 0.065
50 | GQSTILVGSEIYEKLKN [CDC53] | 2.67 ± 0.14 | 3.12 ± 0.15 | 1.36 ± 0.21 | 1.96 ± 0.077
51 | GSDEAYVKDARKDTVSR [RPC40] | 3.23 ± 0.11 | 3.17 ± 0.12 | 3.13 ± 0.061 | 3.35 ± 0.13
52 | GSELSSKIRKIHIQETQ [SIR3] | 2.61 ± 0.069 | 2.54 ± 0.084 | 2.58 ± 0.075 | 2.68 ± 0.056
